Measurements as given in US20130209454A1.

Key:
Assay in all cases: cell-based or functional assay
[1] = molecular target: Env of HIV-1 strain CNE19 (HIV-1)
[2] = molecular target: Env of HIV-1 strain Q842.d12 (HIV-1)
[3] = molecular target: HIV-1 Env of strain 231965.c01 (HIV-1)
[4] = molecular target: HIV-1 Env of strain HIV-16055-2.3 (HIV-1)
[5] = molecular target: Env of HIV-1 strain 3365.v2.c2 (HIV-1)
[6] = molecular target: Env of HIV-1 strain REJO4541.67 (HIV-1)
[7] = molecular target: HIV-1 Env of strain CNE20 (HIV-1)
[8] = molecular target: HIV-1 Env of strain 6535.3 (HIV-1)
[9] = molecular target: HIV-1 Env of strain Q23.17 (HIV-1)
[10] = molecular target: HIV-1 Env of strain HIV-001428-2.42 (HIV-1)
[11] = molecular target: HIV-1 Env of strain 211-9 (HIV-1)
[12] = molecular target: Env of HIV-1 strain 1394C9G1(Rev-) (HIV-1)
[13] = molecular target: Env of HIV-1 strain ZM233M.PB6 (HIV-1)
[14] = molecular target: HIV-1 Env of strain RHPA4259.7 (HIV-1)
[15] = molecular target: HIV-1 Env of strain X1254_c3 (HIV-1)
[16] = molecular target: Env of HIV-1 strain 89-F1_2_25 (HIV-1)
[17] = molecular target: Env of HIV-1 strain 191084 B7-19 (HIV-1)
[18] = molecular target: Env of HIV-1 strain 6540.v4.c1 (HIV-1)
[19] = molecular target: HIV-1 Env of strain 928-28 (HIV-1)
[20] = molecular target: HIV-1 Env of strain ZM214M.PL15 (HIV-1)
[21] = molecular target: HIV-1 Env of strain ZM135M.PL10a (HIV-1)
[22] = molecular target: Env of HIV-1 strain ZM53M.PB12 (HIV-1)
[23] = molecular target: Env of HIV-1 strain 620345.c01 (HIV-1)
[24] = molecular target: HIV-1 Env of strain ZM247v1(Rev-) (HIV-1)
[25] = molecular target: Env of HIV-1 strain ZM214M.PL15 (HIV-1)
[26] = molecular target: Env of HIV-1 strain CNE52 (HIV-1)
[27] = molecular target: Env of HIV-1 strain 3016.v5.c45 (HIV-1)
[28] = molecular target: Env of HIV-1 strain BF1266.431a (HIV-1)
[29] = molecular target: HIV-1 Env of strain 0815.v3.c3 (HIV-1)
[30] = molecular target: Env of HIV-1 strain Q461.e2 (HIV-1)
[31] = molecular target: Env of HIV-1 strain HIV-16055-2.3 (HIV-1)
[32] = molecular target: Env of HIV-1 strain X1193_c1 (HIV-1)
[33] = molecular target: HIV-1 Env of strain CNE17 (HIV-1)
[34] = molecular target: HIV-1 Env of strain C4118.c09 (HIV-1)
[35] = molecular target: Env of HIV-1 strain 6952.v1.c20 (HIV-1)
[36] = molecular target: HIV-1 Env of strain Ce2060_G9 (HIV-1)
[37] = molecular target: Env of HIV-1 strain 3415.v1.c1 (HIV-1)
[38] = molecular target: HIV-1 Env of strain CNE21 (HIV-1)
[39] = molecular target: Env of HIV-1 strain ZM197M.PB7 (HIV-1)
[40] = molecular target: Env of HIV-1 strain Ce2010_F5 (HIV-1)
[41] = molecular target: HIV-1 Env of strain 191821_E6_1 (HIV-1)
[42] = molecular target: HIV-1 Env of strain CNE5 (HIV-1)
[43] = molecular target: Env of HIV-1 strain 6240_08_TA5_4622 (HIV-1)
[44] = molecular target: HIV-1 Env of strain WITO4160.33 (HIV-1)
[45] = molecular target: HIV-1 Env of strain T255-34 (HIV-1)
[46] = molecular target: Env of HIV-1 strain Du172.17 (HIV-1)
[47] = molecular target: HIV-1 Env of strain CNE30 (HIV-1)
[48] = molecular target: HIV-1 Env of strain BJOX028000.10.3 (HIV-1)
[49] = molecular target: HIV-1 Env of strain Q769.d22 (HIV-1)
[50] = molecular target: Env of HIV-1 strain 6480.v4.c25 (HIV-1)
[51] = molecular target: Env of HIV-1 strain 191955_A11 (HIV-1)

NIH45-46 (antibody), sequence (VH): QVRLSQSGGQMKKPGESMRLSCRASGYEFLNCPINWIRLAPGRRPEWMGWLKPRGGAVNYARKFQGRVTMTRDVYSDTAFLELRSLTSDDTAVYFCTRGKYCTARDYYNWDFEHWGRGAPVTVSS
NIH45-46 (antibody), sequence (V domain): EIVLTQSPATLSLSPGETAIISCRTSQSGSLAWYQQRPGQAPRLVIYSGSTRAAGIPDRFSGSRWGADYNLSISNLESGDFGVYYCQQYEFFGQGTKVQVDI

NIH45-46 (antibody)
IC80 [1]: 0.37 µg/mL
IC80 [2]: 0.073 µg/mL
IC50, pseudovirus neutralization [3]: 0.051 µg/mL
IC50, pseudovirus neutralization [4]: 0.02 µg/mL
IC80 [5]: 0.11 µg/mL
IC80 [6]: 0.035 µg/mL
IC50, pseudovirus neutralization [7]: 7.83 µg/mL
IC50, pseudovirus neutralization [8]: 0.14 µg/mL
IC50, pseudovirus neutralization [9]: 0.14 µg/mL
IC50, pseudovirus neutralization [10]: 0.001 µg/mL
IC50, pseudovirus neutralization [11]: > 50 µg/mL
IC80 [12]: 0.38 µg/mL
IC80 [13]: 14.2 µg/mL
IC50, pseudovirus neutralization [14]: 0.017 µg/mL
IC50, pseudovirus neutralization [15]: 0.032 µg/mL
IC80 [16]: > 50 µg/mL
IC80 [17]: 0.07 µg/mL
IC80 [18]: > 50 µg/mL
IC50, pseudovirus neutralization [19]: 0.23 µg/mL
IC50, pseudovirus neutralization [20]: 0.17 µg/mL
IC50, pseudovirus neutralization [21]: 0.59 µg/mL
IC80 [22]: 0.61 µg/mL
IC80 [23]: > 50 µg/mL
IC50, pseudovirus neutralization [24]: 2.94 µg/mL
IC80 [25]: 0.59 µg/mL
IC80 [26]: 0.12 µg/mL
IC80 [27]: > 50 µg/mL
IC80 [28]: 0.03 µg/mL
IC50, pseudovirus neutralization [29]: 0.014 µg/mL
IC80 [30]: 0.291 µg/mL
IC80 [31]: 0.06 µg/mL
IC80 [32]: 0.064 µg/mL
IC50, pseudovirus neutralization [33]: 0.261 µg/mL
IC50, pseudovirus neutralization [34]: 0.14 µg/mL
IC80 [35]: 0.07 µg/mL
IC50, pseudovirus neutralization [36]: 0.058 µg/mL
IC80 [37]: 0.086 µg/mL
IC50, pseudovirus neutralization [38]: 6.01 µg/mL
IC80 [39]: 0.55 µg/mL
IC80 [40]: 0.357 µg/mL
IC50, pseudovirus neutralization [41]: 0.09 µg/mL
IC50, pseudovirus neutralization [42]: 0.09 µg/mL
IC80 [43]: 1.55 µg/mL
IC50, pseudovirus neutralization [44]: 0.06 µg/mL
IC50, pseudovirus neutralization [45]: 0.71 µg/mL
IC80 [46]: > 50 µg/mL
IC50, pseudovirus neutralization [47]: 0.309 µg/mL
IC50, pseudovirus neutralization [48]: 0.07 µg/mL
IC50, pseudovirus neutralization [49]: 0.009 µg/mL
IC80 [50]: 0.1 µg/mL
IC80 [51]: 0.43 µg/mL
